Reference: patent publication US20120040474A1 (published 2012)

T1: denatured glycoprotein RNase B, P61823
T1 chain: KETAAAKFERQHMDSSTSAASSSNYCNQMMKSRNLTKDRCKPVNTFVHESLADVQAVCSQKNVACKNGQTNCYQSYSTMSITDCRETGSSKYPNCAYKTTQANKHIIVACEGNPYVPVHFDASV

T2: denatured glycoprotein RNase B (UniProt P61823 27-150, a single N-glycosylation site predominantly occupied by high mannose oligosaccharides; protein denatured)
T2 construct: Recognition by the PNGase F mutants and by Con A goes through the N-linked glycan on the protein; also called denatured RNase B; dRNAse B
T2 sequence (looked up): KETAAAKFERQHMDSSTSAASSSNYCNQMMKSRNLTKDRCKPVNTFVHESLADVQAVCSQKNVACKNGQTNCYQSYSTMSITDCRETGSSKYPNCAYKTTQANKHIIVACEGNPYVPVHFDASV


Assays:
[1] = target: denatured glycoprotein RNase B (UniProt P61823); test: reference value of Table 7
[2] = target: T1, denatured glycoprotein RNase B, P61823; test: enzyme Km of the wild type, used as reference for the SPR Kd values
[3] = target: T2, denatured glycoprotein RNase B; test: SPR Kd against wild type Km

Molecule | Relative Enhancement (relative to wild type) [3] [fold] | also measured
PNGase F, Peptide-N4-(acetyl-β-D-glucosaminyl)-asparagine amidase, wild type (D60) (from UniProt P21163 41-354) (enzyme) | – | Relative Enhancement (relative to wild type) [1]: 1 fold
PNGase F, Peptide-N4-(acetyl-β-D-glucosaminyl)-asparagine amidase, wild type (D60) (protein) APADNTVNIKTFDKVKNAFGDGLSQSAEGTFTFPADVTTVKTIKMFIKNECPNKTCDEWDRYANVYVKNKTTGEWYEIGRFITPYWVGTEKLPRGLEIDVTDFKSLLSGNTELKIYTETWLAKGREYSVDFDIVYGTPDYKYSAVVPVIQYNKSSIDGVPYGKAHTLGLKKNIQLPTNTEKAYLRTTISGWGHAKPYDAGSRGCAEWCFRTHTIAINNANTFQHQLGALGCSANPINNQSPGNWAPDRAGWCPGMAVPTRIDVLNNSLTGSTFSYEYKFQSWTNNGTNGDAFYAISSFVIAKSNTPISAPVVTN | – | Km (printed in the Kd column, footnote a) [2]: 6.4 mM
PNGase F D60A mutant (enzyme) APADNTVNIKTFDKVKNAFGDGLSQSAEGTFTFPADVTTVKTIKMFIKNECPNKTCDEWARYANVYVKNKTTGEWYEIGRFITPYWVGTEKLPRGLEIDVTDFKSLLSGNTELKIYTETWLAKGREYSVDFDIVYGTPDYKYSAVVPVIQYNKSSIDGVPYGKAHTLGLKKNIQLPTNTEKAYLRTTISGWGHAKPYDAGSRGCAEWCFRTHTIAINNANTFQHQLGALGCSANPINNQSPGNWAPDRAGWCPGMAVPTRIDVLNNSLTGSTFSYEYKFQSWTNNGTNGDAFYAISSFVIAKSNTPISAPVVTN | 580 | –
PNGase F D60A/E206A mutant (enzyme) APADNTVNIKTFDKVKNAFGDGLSQSAEGTFTFPADVTTVKTIKMFIKNECPNKTCDEWARYANVYVKNKTTGEWYEIGRFITPYWVGTEKLPRGLEIDVTDFKSLLSGNTELKIYTETWLAKGREYSVDFDIVYGTPDYKYSAVVPVIQYNKSSIDGVPYGKAHTLGLKKNIQLPTNTEKAYLRTTISGWGHAKPYDAGSRGCAAWCFRTHTIAINNANTFQHQLGALGCSANPINNQSPGNWAPDRAGWCPGMAVPTRIDVLNNSLTGSTFSYEYKFQSWTNNGTNGDAFYAISSFVIAKSNTPISAPVVTN | 320 | –
PNGase F E206A mutant (enzyme) APADNTVNIKTFDKVKNAFGDGLSQSAEGTFTFPADVTTVKTIKMFIKNECPNKTCDEWDRYANVYVKNKTTGEWYEIGRFITPYWVGTEKLPRGLEIDVTDFKSLLSGNTELKIYTETWLAKGREYSVDFDIVYGTPDYKYSAVVPVIQYNKSSIDGVPYGKAHTLGLKKNIQLPTNTEKAYLRTTISGWGHAKPYDAGSRGCAAWCFRTHTIAINNANTFQHQLGALGCSANPINNQSPGNWAPDRAGWCPGMAVPTRIDVLNNSLTGSTFSYEYKFQSWTNNGTNGDAFYAISSFVIAKSNTPISAPVVTN | 580 | –
PNGase F D60A/E206K mutant (enzyme) APADNTVNIKTFDKVKNAFGDGLSQSAEGTFTFPADVTTVKTIKMFIKNECPNKTCDEWARYANVYVKNKTTGEWYEIGRFITPYWVGTEKLPRGLEIDVTDFKSLLSGNTELKIYTETWLAKGREYSVDFDIVYGTPDYKYSAVVPVIQYNKSSIDGVPYGKAHTLGLKKNIQLPTNTEKAYLRTTISGWGHAKPYDAGSRGCAKWCFRTHTIAINNANTFQHQLGALGCSANPINNQSPGNWAPDRAGWCPGMAVPTRIDVLNNSLTGSTFSYEYKFQSWTNNGTNGDAFYAISSFVIAKSNTPISAPVVTN | 360 | –
PNGase F D60A/E206R mutant (enzyme) APADNTVNIKTFDKVKNAFGDGLSQSAEGTFTFPADVTTVKTIKMFIKNECPNKTCDEWARYANVYVKNKTTGEWYEIGRFITPYWVGTEKLPRGLEIDVTDFKSLLSGNTELKIYTETWLAKGREYSVDFDIVYGTPDYKYSAVVPVIQYNKSSIDGVPYGKAHTLGLKKNIQLPTNTEKAYLRTTISGWGHAKPYDAGSRGCARWCFRTHTIAINNANTFQHQLGALGCSANPINNQSPGNWAPDRAGWCPGMAVPTRIDVLNNSLTGSTFSYEYKFQSWTNNGTNGDAFYAISSFVIAKSNTPISAPVVTN | 240 | –
PNGase F D60N mutant (enzyme) APADNTVNIKTFDKVKNAFGDGLSQSAEGTFTFPADVTTVKTIKMFIKNECPNKTCDEWNRYANVYVKNKTTGEWYEIGRFITPYWVGTEKLPRGLEIDVTDFKSLLSGNTELKIYTETWLAKGREYSVDFDIVYGTPDYKYSAVVPVIQYNKSSIDGVPYGKAHTLGLKKNIQLPTNTEKAYLRTTISGWGHAKPYDAGSRGCAEWCFRTHTIAINNANTFQHQLGALGCSANPINNQSPGNWAPDRAGWCPGMAVPTRIDVLNNSLTGSTFSYEYKFQSWTNNGTNGDAFYAISSFVIAKSNTPISAPVVTN | 290 | –
PNGase F D60A/R125A mutant (enzyme) APADNTVNIKTFDKVKNAFGDGLSQSAEGTFTFPADVTTVKTIKMFIKNECPNKTCDEWARYANVYVKNKTTGEWYEIGRFITPYWVGTEKLPRGLEIDVTDFKSLLSGNTELKIYTETWLAKGAEYSVDFDIVYGTPDYKYSAVVPVIQYNKSSIDGVPYGKAHTLGLKKNIQLPTNTEKAYLRTTISGWGHAKPYDAGSRGCAEWCFRTHTIAINNANTFQHQLGALGCSANPINNQSPGNWAPDRAGWCPGMAVPTRIDVLNNSLTGSTFSYEYKFQSWTNNGTNGDAFYAISSFVIAKSNTPISAPVVTN | 360 | –
PNGase F D60A/E206Q mutant (enzyme) APADNTVNIKTFDKVKNAFGDGLSQSAEGTFTFPADVTTVKTIKMFIKNECPNKTCDEWARYANVYVKNKTTGEWYEIGRFITPYWVGTEKLPRGLEIDVTDFKSLLSGNTELKIYTETWLAKGREYSVDFDIVYGTPDYKYSAVVPVIQYNKSSIDGVPYGKAHTLGLKKNIQLPTNTEKAYLRTTISGWGHAKPYDAGSRGCAQWCFRTHTIAINNANTFQHQLGALGCSANPINNQSPGNWAPDRAGWCPGMAVPTRIDVLNNSLTGSTFSYEYKFQSWTNNGTNGDAFYAISSFVIAKSNTPISAPVVTN | 360 | –
PNGase F D60A/D57A mutant (enzyme) APADNTVNIKTFDKVKNAFGDGLSQSAEGTFTFPADVTTVKTIKMFIKNECPNKTCAEWARYANVYVKNKTTGEWYEIGRFITPYWVGTEKLPRGLEIDVTDFKSLLSGNTELKIYTETWLAKGREYSVDFDIVYGTPDYKYSAVVPVIQYNKSSIDGVPYGKAHTLGLKKNIQLPTNTEKAYLRTTISGWGHAKPYDAGSRGCAEWCFRTHTIAINNANTFQHQLGALGCSANPINNQSPGNWAPDRAGWCPGMAVPTRIDVLNNSLTGSTFSYEYKFQSWTNNGTNGDAFYAISSFVIAKSNTPISAPVVTN | 910 | –
